Each substance was assayed against IMP-1 (IGF2BP1) (Homo sapiens) (UniProt Q9NZI8) (assay: pulldown). Conditions: RIP-microarray, A549 cells.
Sequence of IMP-1 (IGF2BP1) (Homo sapiens) (Q9NZI8 whole entry): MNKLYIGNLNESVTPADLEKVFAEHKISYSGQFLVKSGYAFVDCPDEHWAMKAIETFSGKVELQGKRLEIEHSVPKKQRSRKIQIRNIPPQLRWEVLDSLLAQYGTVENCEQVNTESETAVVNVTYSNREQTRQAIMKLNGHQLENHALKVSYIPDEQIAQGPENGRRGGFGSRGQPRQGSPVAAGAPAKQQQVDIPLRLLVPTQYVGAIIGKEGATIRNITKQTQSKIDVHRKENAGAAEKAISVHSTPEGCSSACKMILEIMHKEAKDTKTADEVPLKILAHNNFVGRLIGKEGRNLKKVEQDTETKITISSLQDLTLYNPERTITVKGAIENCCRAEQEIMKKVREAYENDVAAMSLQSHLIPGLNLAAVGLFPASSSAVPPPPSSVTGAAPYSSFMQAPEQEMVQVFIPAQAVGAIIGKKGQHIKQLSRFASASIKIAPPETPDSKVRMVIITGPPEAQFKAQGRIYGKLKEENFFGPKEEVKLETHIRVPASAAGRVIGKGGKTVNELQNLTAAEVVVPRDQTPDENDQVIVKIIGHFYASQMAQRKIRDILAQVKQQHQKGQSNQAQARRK
AMIGO2 mRNA showed a binding signal (fold IP/total RNA) of 5.65.
C17orf39 mRNA was tested, and the binding signal (fold IP/total RNA) was 2.57.
C20orf142 mRNA was tested, and the binding signal (fold IP/total RNA) was 3.21.
For CPSF6 mRNA, the binding signal (fold IP/total RNA) was 2.24.
In the case of CRYAA mRNA, the binding signal (fold IP/total RNA) is reported as 9.77.
Substance DDX1 mRNA has a binding signal (fold IP/total RNA) of 34.2.
HMBS mRNA was tested, and the binding signal (fold IP/total RNA) was 2.48.
With L3MBTL3 mRNA the binding signal (fold IP/total RNA) was 3.19.
LASP1 mRNA showed a binding signal (fold IP/total RNA) of 2.66.
With LPGAT1 mRNA the binding signal (fold IP/total RNA) was 3.14.
For MGC27277 mRNA, the binding signal (fold IP/total RNA) was 3.43.
PDF mRNA gave a binding signal (fold IP/total RNA) of 4.18.
Work on PTP4A1 mRNA yielded a binding signal (fold IP/total RNA) of 3.
RAN mRNA was tested, and the binding signal (fold IP/total RNA) was 81.9.
Work on RNF20 mRNA yielded a binding signal (fold IP/total RNA) of 2.01.
With SYNGR3 mRNA the binding signal (fold IP/total RNA) was 12.3.
For SYNJ2 mRNA, the binding signal (fold IP/total RNA) was 2.56.
Substance UBE2S mRNA has a binding signal (fold IP/total RNA) of 6.78.
YTHDF1 mRNA showed a binding signal (fold IP/total RNA) of 7.99.

Same assay, conditions: RNA immunoprecipitation (FLAG then HA) and cDNA microarray, A549 cells
Work on SMAD3 mRNA yielded a binding signal (fold IP/total RNA) of 720.
